Data from patent US20250243287A1 (SHENGHE CHINA BIOPHARMACEUTICAL, published 2025).
Numbering of substitutions follows the chain as printed. One block for each binder: values may come before it.

Experiments:
[1] = biological target: T1, human CCR8 (chemokine (C-C motif) receptor 8) (human, UniProt P51685 1-355); test: flow cytometry on CCR8-CHO cells
T1 construct: whole, on cells; also called CCR8-CHO-K1 cells; CHOK1-CCR8 cells
Protocol: (§1) The antibody to be tested was taken as the initial concentration of 50 μg/mL and diluted 5-fold with 6 gradients. The cells CCR8-CHO-K1 in the incubator were taken out, and the cell suspension was transferred to a 15 mL centrifuge tube, centrifuged, and counted by resuspension in PBS. A blank control group (Blank), a negative control group (NC), an experimental group, a positive control group (positive control BMK derived from the 1K17 sequence of US20210277129) and the irrelevant antibody group were kept. The cell suspension was spread in a 96-well plate according to about 3×10⁵ cells/well. Centrifugation (1000 rpm, 5 min) was performed, followed by washing with PBS, re-centrifugation, and repeated twice to remove media residues. The supernatant was discarded, 100 μL of primary antibody solution and irrelevant antibody solution were added to the experimental group and irrelevant antibody group, respectively, and the cells were resuspended and incubated at room temperature for 1 h. The blank group, and the negative control group were incubated with an equal amount of PBS.
(§2) After 1 h, PBS was added to wash twice. […] After the supernatant was discarded, 120 μL of PBS was added to resuspend and sequentially flow cytometry was performed to detect the mean fluorescence intensity. […]

[2] = biological target: T1, human CCR8 (chemokine (C-C motif) …); test: flow cytometry on CCR8-CHO-K1 cells
Protocol: as §1, §2

[3] = biological target: T1, human CCR8 (chemokine (C-C motif) …); test: flow cytometry on CHOK1-CCR8 cells, steps of Example 6
[4] = biological target: T1, human CCR8 (chemokine (C-C motif) …); test: flow cytometry on CCR8-CHO-K1 cells, PE anti-human IgG Fc secondary
Protocol: as §1, with “The supernatant was discarded, 100 μL of primary antibody solution and irrelevant antibody solution were added to the experimental group and irrelevant antibody group, respectively, and the cells were resuspended and incubated at room temperature for 1 h. The blank group, and the negative control group were incubated with an equal amount of PBS.” left out
as §2
The binding activity of the chimeric antibodies was detected by FACs method, the secondary antibody was PE F(ab′) 2 sheep anti-human IgG Fc (Biolegend, Cat: 398004), and the assay procedure was the same as Example 6, and the results are shown in FIG. 2.

T1 sequence (P51685 whole entry): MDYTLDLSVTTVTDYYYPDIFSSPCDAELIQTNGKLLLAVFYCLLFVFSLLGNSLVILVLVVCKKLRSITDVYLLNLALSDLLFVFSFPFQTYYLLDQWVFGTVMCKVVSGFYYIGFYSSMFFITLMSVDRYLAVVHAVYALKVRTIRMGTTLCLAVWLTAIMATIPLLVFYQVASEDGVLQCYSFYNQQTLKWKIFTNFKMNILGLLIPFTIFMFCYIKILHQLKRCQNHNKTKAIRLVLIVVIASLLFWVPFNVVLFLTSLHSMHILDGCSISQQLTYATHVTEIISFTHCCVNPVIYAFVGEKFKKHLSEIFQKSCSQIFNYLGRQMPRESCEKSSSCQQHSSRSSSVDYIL

B1: Ms-8 (antibody, V domains shown)
VH: EVQLVETGGGLVQPKGSLKLSCAASGFTFNTYAMNWVRQTPEKGLEWVARIRTKSNNYATSYADSVKDRFTISRYDSQNMLYLQMNNLKTEDTAMYYCVRGGYGIRGDYAMDYWGQGTSVTVSS
VL: DIVMTQAAPSVPVTPGESVSISCRSTKSLLHSNGNTYLYWFLQRPGQSPQLLIYRMSNLASGVPDRFSGSGSGTTFTLRISRVEAEDVGVYYCMQHLEYPFTFGSGTKLEIK
notes: Mouse hybridoma antibody; also called mouse-derived anti-CCR8 antibody Ms-8
binding result [1]: binds

B2: Ms-15 (antibody, V domains shown)
VH: B1 VH with Y32N, T40A, E42G, A49G, S61Y, K67R, N79G, A110T
VL: B1 VL with T26S, T75A
notes: Mouse hybridoma antibody; also called mouse-derived anti-CCR8 antibody Ms-15
binding result [2]: binds

B3: Hu-2-Z5 (antibody, V domains shown)
VH: QVQLVQSGAEVKKPGASVKVSCKASGYTFTDYEMHWVRQAPGQGLEWMGAIDPETGATAYNQKFKGRVTLTADTSISTAYMELSRLRSDDTVVYYCASRAGGRGRFAYWGQGTLVTVSS
VL: EVVMTQSPGTLSLSPGERATLSCRSSQSLVHSSGNTYLHWYQQKPGQSPRLLIYKVSNRFSGIPDRFSGSGSGTDFTLTISRLEPEDFAVYFCSQTTHVPYTFGGGTKLELK
notes: Humanized from CH-2; also called humanized antibody Hu-2-Z5
binding result [3]: binds

B4: Hu-2-Z3 (antibody, V domains shown)
VH: B3 VH with L70S, A72R, S98R
VL: B3 VL with E1D, G9L, R50K
notes: Humanized from CH-2; also called humanized antibody Hu-2-Z3
binding result [3]: binds

B6: Hu-2-Z11 (antibody, V domains shown)
VH: B3 VH with G42V, Q43R, A97K
VL: B3 VL
notes: Humanized from CH-2; also called humanized antibody Hu-2-Z11
binding result [3]: binds

B10: Hu-2-Z9 (antibody, V domains shown)
VH: B3 VH with A97K
VL: B3 VL with E1D, G9L, R50K
notes: Humanized from CH-2; also called humanized antibody Hu-2-Z9
binding result [3]: binds

B11: Hu-2-Z10 (antibody, V domains shown)
VH: B3 VH with G42V, Q43R, A97K
VL: B3 VL with V2I, M4L, S48A, F92Y
notes: Humanized from CH-2; also called humanized antibody Hu-2-Z10
binding result [3]: binds

B13: Hu-2-Z12 (antibody, V domains shown)
VH: B3 VH with G42V, Q43R, A97K
VL: B3 VL with E1D, G9L, R50K
notes: Humanized from CH-2; also called humanized antibody Hu-2-Z12
binding result [3]: binds

B15: Ms-1 (antibody, V domains shown)
VH: QVQLQQSGAELVRPGASVTLSCKASGYTFTAYEMHWVRQTPVNGLEWIGAIDPKTGVTAYNQKFKDKAIMTADKYSSTAYMDLRSLTSEDSAVYYCTSRAGGRGRFAYWGQGTLVTVSA
VL: DVVMTQTPLSLPVSLGDQASISCRSSQSLVHSSANTYLHWYLQKPGQSPKVLIYKVSNRFSGVPDRFSGSGSGTDFTLKISRVEAEDLGLYFCSQSTHVPFTFGGGTKLEIK
notes: Mouse hybridoma antibody; also called mouse-derived anti-CCR8 antibody Ms-1
binding result [2]: binds

B16: chimeric antibody CH-2 (antibody, V domains shown)
VH: QVQLQQSGAELARPGASVTLSCKASGYTFTDYEMHWVKQTPVRGLEWIGAIDPETGATAYNQKFKGKATLTADKSSNTAYMELRRLTSEDSAVYYCKSRAGGRGRFAYWGQGTLVTVSA
VL: B15 VL with S14R, A34G, P45S, V51L, L90V, S96T, F101Y
notes: Variable domains of Ms-2 in a human IgG framework, expressed in CHO cells
binding result [4]: binds

B18: Hu-15-Z6 (antibody, V domains shown)
VH: EVQLVESGGGLVQPGGSLRLSCAASGFTFNTNAMNWVRQAPGKGLEWVGRIRTKSNNYATYYAESVRDRFTISRDDSKNSLYLQMNSLKTEDTAMYYCVRGGYGIRGDYTMDYWGQGTLVTVSS
VL: DIVMTQSPPTLSLSPGERATLSCRSSKSLLHSNGNTYLYWFQQKPGQSPQLLIYRMSNLASGIPDRFSGSGSGTDFTLTISRLEPEDFAVYYCMQHLEYPFTFGQGTKLEIK
notes: Humanized from CH-15; also called humanized antibody Hu-15-Z6
binding result [3]: binds

B19: Hu-15-Z2 (antibody, V domains shown)
VH: B18 VH with M95V, V99A
VL: B18 VL with D1E, P9G, Q50R
notes: Humanized from CH-15; also called humanized antibody Hu-15-Z2
binding result [3]: binds

B20: Hu-15-Z4 (antibody, V domains shown)
VH: B18 VH
VL: B18 VL with D1E, M4L, P9G, F41Y, S48A, Q50R
notes: Humanized from CH-15; also called humanized antibody Hu-15-Z4
binding result [3]: binds

B21: Hu-15-Z9 (antibody, V domains shown)
VH: B18 VH with D108E
VL: B18 VL
notes: Humanized from CH-15; also called humanized antibody Hu-15-Z9
binding result [3]: binds

B24: Hu-15-Z8 (antibody, V domains shown)
VH: B18 VH
VL: B18 VL with G34A
notes: Humanized from CH-15; also called humanized antibody Hu-15-Z8
binding result [3]: binds

B27: Hu-15-Z10 (antibody, V domains shown)
VH: B18 VH with G107A
VL: B18 VL
notes: Humanized from CH-15; also called humanized antibody Hu-15-Z10
binding result [3]: binds

More lines, now with the values ahead:

binding result [3]: binds
B5: Hu-2-Z6 (antibody, V domains shown)
VH: B3 VH
VL: B3 VL with E1D, G9L, R50K
notes: Humanized from CH-2; also called humanized antibody Hu-2-Z6

binding result [3]: binds
B7: Hu-2-Z7 (antibody, V domains shown)
VH: B3 VH with A97K
VL: B3 VL with V2I, M4L, S48A, F92Y
notes: Humanized from CH-2; also called humanized antibody Hu-2-Z7

binding result [3]: binds
B8: Hu-2-Z4 (antibody, V domains shown)
VH: B3 VH
VL: B3 VL with V2I, M4L, S48A, F92Y
notes: Humanized from CH-2; also called humanized antibody Hu-2-Z4

binding result [3]: binds
B9: Hu-2-Z1 (antibody, V domains shown)
VH: B3 VH with L70S, A72R, S98R
VL: B3 VL with V2I, M4L, S48A, F92Y
notes: Humanized from CH-2; made by the aforementioned method (human IgG framework); also called humanized antibody Hu-2-Z1

binding result [3]: binds
B12: Hu-2-Z2 (antibody, V domains shown)
VH: B3 VH with L70S, A72R, S98R
VL: B3 VL
notes: Humanized from CH-2; also called humanized antibody Hu-2-Z2

binding result [3]: binds
B14: Hu-2-Z8 (antibody, V domains shown)
VH: B3 VH with A97K
VL: B3 VL
notes: Humanized from CH-2; also called humanized antibody Hu-2-Z8

binding result [1]: binds
B17: Ms-2 (antibody, V domains shown)
VH: B16 VH
VL: B15 VL with S14R, A34G, P45S, V51L, L90V, S96T, F101Y
notes: Mouse hybridoma antibody; also called mouse-derived anti-CCR8 antibody Ms-2

binding result [3]: binds
B22: Hu-15-Z5 (antibody, V domains shown)
VH: B18 VH
VL: B18 VL with D1E, P9G, Q50R
notes: Humanized from CH-15; also called humanized antibody Hu-15-Z5

binding result [3]: binds
B23: Hu-15-Z3 (antibody, V domains shown)
VH: B18 VH with M95V, V99A
VL: B18 VL
notes: Humanized from CH-15; also called humanized antibody Hu-15-Z3

binding result [3]: binds
B25: Hu-15-Z1 (antibody, V domains shown)
VH: B18 VH with M95V, V99A
VL: B18 VL with D1E, M4L, P9G, F41Y, S48A, Q50R
notes: Humanized from CH-15; made by the aforementioned method (human IgG framework); also called humanized antibody Hu-15-Z1

binding result [3]: binds
B26: Hu-15-Z7 (antibody, V domains shown)
VH: B18 VH
VL: B18 VL with N33Q
notes: Humanized from CH-15; also called humanized antibody Hu-15-Z7
